From patent US11028127B2, “Peptides capable of reactivating p53 mutants” (Yeda Research and Development Co. Ltd., priority 2013, dated 2021)

Columns and labels:
Mut-p53 (R175H p53) [1] = molecular target: T1, Mut-p53 (R175H p53) (Homo sapiens, UniProt P04637, R175H); test: p53/DNA binding ELISA kit (R&D), binding to p53-RE DNA; assay type: biochemical; conditions: H1299-R175H p53 cell extracts, vs background (NT)
T1 construct: a hot spot full length mutant p53 Mut-p53 R175H (R175H p53); expressed in transfected cells; host or cells: H1299 (p53-null) cells stably overexpressing R175H p53; cell extract
From the text: A commercial p53/DNA binding kit (R&D) was used, according to manufacturer instructions. Briefly, 96 well plates were coated with anti-p53 antibody overnight. Cell extracts containing p53 were reacted with an oligonucleotide that contains a p53 consensus binding site, labeled with biotin, in the presence or absence (NT) of test peptides. WT p53 is expected to bind this DNA binding site as well as to the antibody coating the test wells of the plate. Excess p53 and oligos are washed away and streptavidin-HRP is used to quantify the amount of oligos in the well, which is proportional to the DNA bound by p53. TMB assay was performed to determine HRP levels (450 nm). The results are presented as relative absorbance (at 450 nm) (Y-Axis) of each tested sample. MCF7 and the H1299-Mut-p53 (ts) A135V cells serve as positive controls for WT p53.
For these experiments, a commercial p53/DNA binding kit of “R&D” (Cat-DYC1355-5 Lot-1273366FA) was used, in accordance with manufacturer guide lines. Briefly, 96 well plates are coated with anti-p53 antibody overnight. Cell extracts containing p53 are reacted with an oligonucleotide that contains a p53 consensus binding site (provided in the kit), labeled with biotin, in the presence or absenc.
e (NT) of test peptides. WT p53 is expected to bind this DNA binding site as well as to the antibody coating the test wells of the plate. Excess p53 and oligos were washed away and streptavidin-HRP was used to quantify the amount of oligos in the well, which is proportional to the DNA bound by p53. TMB assay was performed to determine HRP (ES001-1L-K) levels (450 nm).
To measure the effect of the tested peptides on DNA binding of Mut-p53, a commercial ELISA kit, (R&D Systems DYC1355-5, Lot-1273366FA), was used as a high-throughput assay to quantify p53 activation. This kit uses a 96-well plate format. The kit was used according to manufacturer's instructions. Wells were coated with anti-p53 antibody overnight. Cell extracts containing p53 were reacted with a biotin labeled oligonucleotide containing a p53 consensus binding site (included in the kit). WT p53 is expected to bind this oligo as well as the antibody coating the wells. Excess p53 and oligo were washed away in wash buffer (0.05% Tween 20 in PBS, pH 7.2-7.4; R&D Systems, Catalog #WA126). Then, streptavidin-HRP (R&D Systems, Part 890803, provided in the kit) was added for 15-45 min to quantify the amount of oligo in the well, which is proportional to the DNA bound by p53. If the addition of a peptide to Mut-p53 extracts increases ELISA reading compared to background, this peptide is considered as functionally effective and may be selected for further analysis. […] As with the conformational screening, MCF7 and the H1299-Mut-p53 (ts) A135V cells served as positive controls for WT p53. Extracts were added to the wells coated with αp53-Ab, and after several washing steps, streptavidin-HRP was added for 1 hour, and then plates were washed again and TMB (substrate to HRP) assay was performed.

[2] = tested on: WI-38 fibroblasts overexpressing R175H p53 (WI38-175); test: Crystal violet viability assay; assay type: cell-based; conditions: 48 hours; much more prominent than in mNoxa-i control cells
Method: FIGS. 13A and 13B are bar graphs illustrating the effect of various tested peptides on the viability of cells expressing Mut-p53, as determine by crystal violet assay. WI-38 fibroblasts expressing endogenous WT p53 were infected with retroviruses expressing either mouse Noxa shRNA (WI38-m-Noxa-i) as a nonspecific control or the R175H p53 mutant for stable overexpression of mutant p53 (WI38-175). The cells (WI38-m-Noxa-i or WI38-175) were seeded at 3000 cells per well in 96-well plates. Tested peptides were added to the cells. Different concentrations of etoposide (cytotoxic drug, 4′-Demethyl-epipodophyllotoxin 9-[4,6-O—(R)-ethylidene-beta-D-glucopyranoside], 4′-(dihydrogen phosphate) were used as positive control for cell death and as a standard reference curve to assess the effect of tested peptides. 48 hours after treatment, cells were washed with PBS to exclude dead cells and debris, and cells that remained attached to the plate were stained with crystal-violet for 30 minutes. Crystal violet was removed and cells were washed 4 times with PBS to remove residual crystal violet. Then, the stained cells were dissolved in 10% acetic acid and plates were taken for optical density measurement at 595 nM (optimal for crystal violet). The bar graphs of FIGS. 13A and 13B show the optical density reads at 595 nm, which reflect the number of cells in the plate after treatment, normalized to the non-treated (NT) samples.
Cells were cultured in 96 wells plates with 2500-4000 cells/well in 0.1 ml and incubated overnight at 37° C. in order to adhere to the plate. Serial dilutions of different peptides (0.5 μg/ml) were added in 0.1 ml aliquots and the plates incubated for additional 48 h at 37° C. Then medium was removed and cell lysis was determined by staining the cells with crystal violet (0.5%) in methanol/water (1:4, v/v), 50 μl each well, for 10 min, followed by 3 washes with PBS. Afterwards, 10% acetic acid (50 μl) was added to each well and shaken for 10 min. Then, automatic plate reading was performed at 595 nm.
An important indication for the reactivating peptides activity is their effect in-vivo on cancer cells that express Mut-p53. In particular, reactivating peptides that can cause specifically Mut-p53-dependent death of cancer cells, with minimal toxic effects on normal cells are desired. A crystal-violet based viability assay, in which crystal-violet is employed to stain cells that adhere to the plate and therefore the amount of dye is proportional to cell number was used to determine the effect of the various test peptides on Mut-p53-dependent death.
Cells were plated in 96-well plates, at calibrated density that allows them to grow for 48 hours without reaching confluence. Peptides are added 6 hours later. Different concentrations of etoposide (cytotoxic drug) were used as positive control for cell death and as a standard reference curve to assess the effect of tested peptides. 48 hours after treatment, cells were washed with PBS to exclude dead cells and debris, and cells that remained attached to the plate were stained with crystal-violet for 30 minutes. Crystal-violet was removed and cells were washed with PBS 4 times to eliminate remains of crystal-violet. Then, the stained cells were dissolved in 10% acetic acid and plates were taken for optical density measurement at 595 nM (specific to crystal-violet).
FIGS. 13A and 13B illustrate a representative experiment of screening performed on 128 synthesized peptides. In this experiment, WI-38 fibroblasts were used. These cells express endogenous WT p53 and were further infected with a virus expressing either mouse Noxa shRNA, as a nonspecific control or the R175H p53 mutant for stable overexpression of mutant p53. Both of these sub-lines (mNoxa or R175H p53) were seeded at 3000 cells per well and treated as described above. […]

Mut-p53 (R175H p53) [3] = molecular target: T1, Mut-p53 (R175H p53); test: Sandwich ELISA for p53 conformation (PAb1620/PAb240 reactivity); assay type: biochemical; conditions: extract of H1299 cells overexpressing R175H p53; peptide 50 ng/ml, 2 hours
Method: To measure the conformational effect of the peptides on Mut-p53, a micro-titer plate was coated with either PAb240, PAb1620 or pAb421 (as a positive control and standard for total p53 protein, since the antibody used recognizes both WT and mutant conformations), overnight incubated, washed, blocked, and cell extracts (with or without peptides) were added for an additional 2 hours. After removal of extracts, plates were washed and incubated with the αp53-HRP conjugated Ab for the detection of p53 levels. A TMB (substrate of HRP) assay was performed and optical density was determined at 450 nm. WT p53 served as a positive control for reactivity with PAb1620, and Mut-p53 served as a negative control. The results are presented as the ratio of absorbance between the PAb1620 or PAb240 samples and the control […] sample. MCF7 and H1299-Mut-p53 (ts) A135V (TS) cells were used as positive controls for the WT p53 conformation (1620/240 ratio equals or exceeds 5:1).
96-well plates were coated using 3 different antibodies (1 type of antibody (Ab) in each well): PAb421 recognizes both conformations of p53 and binds to a C-terminus epitope; PAb240 recognizes mutant conformation of p53, binds to epitope within the core domain (amino acids 212-217) (Stephen, C. W. and D. P. Lane, Mutant conformation of p53. Precise epitope mapping using a filamentous phage epitope library. J. Mol. Biol., 1992. 225(3): p. 577-83) which is accessible to the Ab when the protein is partially denatured (for example, when the DBD is mutated); and PAb1620, which recognizes WT conformation of p53, binds to epitope with in the core domain (aa 156, 206-210), formed when folding is in WT conformation (Wang, P. L., F. Salt, and G. Winter, The ‘wild type’ conformation of p53: epitope mapping using hybrid proteins. Oncogene, 2001. 20(18): p. 2318-24).
Wells were incubated overnight (ON) with 100 μl Ab (5 μg/ml) in room temp (RT). The liquid was discarded, and the wells were washed 3 times with Phosphate buffered saline (PBS), 200 μl per each wash. Next, blocking with 200 μl of 5% bovine serum albumin (BSA) diluted in PBS in each well for 1.5 hours at room temperature (RT) was performed. Blocking buffer was discarded, followed by 3 washes in PBS as described above. Samples of mutant and WT p53 proteins (100 μl, 10 μg/ml), together with control peptides pCAP-710 (LPNPPER, SEQ ID NO:328) and pCAP-1220 ([…], SEQ ID NO:368) (5 μg/ml, Sigma Aldrich, or with test peptides 1-153 (5 μg/ml), were incubated for 1.5 hours together, and then added to the wells. Samples were rotated and incubated for 1 hour at RT. Samples were discarded, following 4 washes as described above, using Trisphosphate buffered saline (TPBS). Next, horseradish peroxidase (HRP) conjugated streptavidin p53 antibody (10 μg/ml HAF1355 (R&D)) was added to the wells and incubated at RT for 1 hour. After the plate was washed 3 times in TPBS, TMB substrate solution (50 μl each well, Thermo, (Cat. No. ES001-1L-K)) was added and incubated at 37° c. for 20 min. The reaction was stopped with 2M sulfuric acid (50 μl). The absorbance was measured at 450 nm with a spectrophotometer. Protein concentration was determined by dividing the absorbencies of each sample to the absorbance of Ab 421 samples.
The first screening strategy was based on ELISA. A version of sandwich ELISA was used to examine the effect of the lead test peptides on p53 conformation. To measure the conformational effect of the peptides on Mut-p53, a micro-titer plate was coated with PAb240, PAb1620 or pAb421 (as a positive control), and then the reactivity of p53 to these antibodies was examined. WT p53 served as a positive control for reactivity with PAb1620, and Mut-p53 served as a negative control. To examine the effect of a tested peptide it was added to a solution containing Mut-p53 and change in reactivity to either Ab was tested. […] Several ELISA experiments using different cell extracts were performed. […]

[4] = tested on: SKBR3 cells expressing endogenous R175H p53; conditions: SKBR3 ShCon cells, 5 ug/ml, 18 hours
Method: FIG. 16 is a bar graph illustrating the effect of the indicated peptides on activation of Mut-p53 by measuring transactivation of p53 target genes as determined by qRT-PCR. SKBR3 ShCon cells and SKBR3 Shp53 cells knocked down for p53 expression were used. The cells were plated in 12-well dishes and the indicated peptides were added directly to the medium at a concentration of 5 ug/ml. 18 hours later cells were harvested, followed by qRT-PCR analysis. Expression level of p21, PUMA and Mdm2 was evaluated. FIG. 16 illustrates the relative fold induction of transcription of the tested genes in the various samples relative to their transcription level in non-treated cells. GAPDH mRNA was measured in parallel as a control.
RNA was obtained using Macherey-Nagel NucleoSpin RNA II Kit on cells pellet according to the manufacturer's protocol. Aliquots of 0.4-1 μg were reverse transcribed using Bio-RT 2000 (Bio-Lab) and random hexamer primers. Quantitative real-time polymerase chain reaction (QRT-PCR) was performed on an ABI 7300 instrument (Applied Biosystems) using PerfeCTa SYBR Green FastMix ROX (Quanta). RT-PCR primers used are presented in Table 1 (primers sequences are presented 5′ to 3′).
The tested peptides were further tested for their effect on p53 target gene expression in SKBR3 cells expressing endogenous R175H p53. […] In essence, these cells were plated in 12-well dishes; the indicated peptides were added directly to the medium at a concentration of 5 ug/ml. 18 hours later cells were harvested, followed by qRT-PCR analysis. Expression level of p21, PUMA and Mdm2 was evaluated. Expression of those genes in non-treated cells is considered background and all results were normalized to it, as well as to GAPDH.

Sequence | binding of H1299-R175H p53 extracts to p53-RE DNA (Mut-p53 (R175H p53) [1]) | reduction in cell numbers, R175H p53 expressing WI-38 cells [2] | reactivity of R175H Mut-p53 towards PAb1620 and PAb240 (conformational change) (Mut-p53 (R175H p53) [3]) | transactivation of p53 target genes (p21, PUMA, Mdm2) [4]
ATQHHYIK [pCAP-93] | elevate the binding of H1299-R175H p53 extracts to p53-RE DNA | – | – | –
WNHHHSTPHPAH [pCAP-97] | elevate the binding of H1299-R175H p53 extracts to p53-RE DNA | significant reduction in cell numbers | – | –
TLYLPHWHRH [pCAP-47] | – | significant reduction in cell numbers | increased reactivity of R175H Mut-p53 towards PAb1620 and decreased reactivity towards PAb240 | –
WNHHHSTPHPRRRRRRRRRR [pCAP-148] | – | – | – | among the highest transactivation levels
HSSHHHPVHSWN [pCAP-83] | elevate the binding of H1299-R175H p53 extracts to p53-RE DNA | – | – | –
YPTQGHLR [pCAP-36] | – | significant reduction in cell numbers | increased reactivity of R175H Mut-p53 towards PAb1620 and decreased reactivity towards PAb240 | –
SFILFIRRGRLGRRRRRRRRR [pCAP-144] | – | – | – | among the highest transactivation levels
